# Reference: PMC2845083
# Biological target: 6xHis-hKNL1 fragment (amino acids 1-86), Ser-Asp phospho-mimetic mutations in the SILK and RVSF motifs (human) (UniProt Q8NG31)
# Assay: pull-down
substance,measurement,value
recombinant hPP1γ (protein phosphatase 1 gamma catalytic subunit) (from UniProt P36873 1-323) (enzyme),reduction of binding against wild type,> 70%
